The values that follow come from patent US20180244725.

For the data set, the target named is T1, R5 peptide.
T1 chain: SSKKSGSYSGSKGSKRRIL

B1: BRSK2 (protein)
chain: MWPPDPDPDPDPEPAGGSRPGPAVPGLRALLPARAFLCSLKGRLLLAESGLSFITFICYVASSASAFLTAPLLEFLLALYFLFADAMQLNDKWQGLCWPMMDFLRCVTAALIYFAISITAIAKYSDGASKAAGVFGFFATIVFATDFYLIFNDVAKFLKQGDSADETTAHKTEEENSDSDSD
Consider B1, for which the “enzymatic modification of R5 (Phosphorylation)” value is recorded as “resulted in no modifications”.

B2: deoxyhypusine hydroxulase (DOHH) (protein)
chain: MVTEQEVDAIGQTLVDPKQPLQARFRALFTLRGLGGPGAIAWISQAFDDDSALLKHELAYCLGQMQDARAIPMLVDVLQDTRQEPMVRHEAGEALGAIGDPEVLEILKQYSSDPVIEVAETCQLAVRRLEWLQQHGGEPAAGPYLSVDPAPPAEERDVGRLREALLDESRPLFERYRAMFALRNAGGEEAALALAEGLHCGSALFRHEVGYVLGQLQHEAAVPQLAAALARCTENPMVRHECAEALGAIARPACLAALQAHADDPERVVRESCEVALDMYEHETGRAFQYADGLEQLRGAPS
B2: the “hypusination of R5 (LC-MS time course)” value is listed as “A time course showing the conversion of two lysine to hypusine residues was determined by LC-MS”.

B3: vopS (protein)
chain: GKEYTINAATQEFTRANPTSGAVARFFEATGKLFREGSTQSVAKAITKAVFDNEQGQAQRLQTSSSVEHGQMLFKDANLKTPSDVLNAFAKLDSKMVKSHAAELSQLAERAMTEVMLETDSGKNLKALIGDDAVKSLAVRVVKDYGGGVAAAQKNPEVRINQMQAVFDMEVMHLKAAQRHIEGLASTDLNQGVYAEGLPEDAFNKAGVTNNVERAAAWIINASNSKGNDAENITSLLKEYATNGKDLLNMDNLKELHARLVPNVERDYRGPNISGGTLPSSIGGEGMLKQHIEGFLKENPVADKDLGKHLFAGVIGYHGFTDGNGRMGRMLYAIAELRNDSFNPLAMNAENSLHGIK
For B3, the “enzymatic modification of R5 (Adenylylation)” value was “resulted in no modifications”.

B4: deoxyhypusine synthase (DHPS) (protein)
chain: MEGSLEREAPAGALAAVLKHSSTLPPESTQVRGYDFNRGVNYRALLEAFGTTGFQATNFGRAVQQVNAMIEKKLEPLSQDEDQHADLTQSRRPLTSCTIFLGYTSNLISSGIRETIRYLVQHNMVDVLVTTAGGVEEDLIKCLAPTYLGEFSLRGKELRENGINRIGNLLVPNENYCKFEDWLMPILDQMVMEQNTEGVKWTPSKMIARLGKEINNPESVYYWAQKNHIPVFSPALTDGSLGDMIFFHSYKNPGLVLDIVEDLRLINTQAIFAKCTGMIILGGGVVKHHIANANLMRNGADYAVYINTAQEFDGSDSGARPDEAVSWGKIRVDAQPVKVYADASLVFPLLVAETFAQKMDAFMHEKNED
For the protein B4, the “hypusination of R5 (LC-MS time course)” value was “A time course showing the conversion of two lysine to hypusine residues was determined by LC-MS”.

B5: LipB (protein)
chain: MYQDKILVRQLGLQPYEPISQAMHEFTDTRDDSTLDEIWLVEHYPVFTQGQAGKAEHILMPGDIPVIQSDRGGQVTYHGPGQQVMYVLLNLKRRKLGVRELVTLLEQTVVNTLAELGIEAHPRADAPGVYVGEKKICSLGLRIRRGCSFHGLALNVNMDLSPFLRINPCGYAGMEMAKISQWKPEATTNNIAPRLLENILALLNNPDFEYITA
With B5, the “enzymatic modification of R5 (Lipidation)” value is “resulted in no modifications”.

B6: LplA (protein)
chain: STLRLLISDSYDPWFNLAVEECIFRQMPATQRVLFLWRNADTVVIGRAQNPWKECNTRRMEEDNVRLARRSSGGGAVFHDLGNTCFTFMAGKPEYDKTISTSIVLNALNALGVSAEASGRNDLVVKTVEGDRKVSGSAYRETKDRGFHHGTLLLNADLSRLANYLNPDKKKLAAKGITSVRSRVTNLTELLPGITHEQVCEAITEAFFAHYGERVEAEIISPNKTPDLPNFAETFARQSSWEWNFGQAPAFSHLLDERFTWGGVELHFDVEKGHITRAQVFTDSLNPAPLEALAGRLQGCLYRADMLQQECEALLVDFPEQEKELRELSAWMAGAVR
For the protein B6, the “enzymatic modification of R5 (Lipidation)” value is recorded as “resulted in no modifications”.

B7: GALNT1 (protein)
chain: GLPAGDVLEPVQKPHEGPGEMGKPVVIPKEDQEKMKEMFKINQFNLMASEMIALNRSLPDVRLEGCKTKVYPDNLPTTSVVIVFHNEAWSTLLRTVHSVINRSPRHMIEEIVLVDDASERDFLKRPLESYVKKLKVPVHVIRMEQRSGLIRARLKGAAVSKGQVITFLDAHCECTVGWLEPLLARIKHDRRTVVCPIIDVISDDTFEYMAGSDMTYGGFNWKLNFRWYPVPQREMDRRKGDRTLPVRTPTMAGGLFSIDRDYFQEIGTYDAGMDIWGGENLEISFRIWQCGGTLEIVTCSHVGHVFRKATPYTFPGGTGQIINKNNRRLAEVWMDEFKNFFYIISPGVTKVDYGDISSRVGLRHKLQCKPFSWYLENIYPDSQIPRHYFSLGEIRNVETNQCLDNMARKENEKVGIFNCHGMGGNQVFSYTANKEIRTDDLCLDVSKLNGPVTMLKCHHLKGNQLWEYDPVKLTLQHVNSNQCLDKATEEDSQVPSIRDCNGSRSQQWLLRNVTLPEIF
In the case of B7, the “enzymatic modification of R5 (Glycosylation)” value is on record as “resulted in no modifications”.

B8: POMT1 (protein)
chain: MWGFLKRPVVVTADINLSLVALTGMGLLSRLWRLTYPRAVVFDEVYYGQYISFYMKQIFFLDDSGPPFGHMVLALGGYLGGFDGNFLWNRIGAEYSSNVPVWSLRLLPALAGALSVPMAYQIVLELHFSHCAAMGAALLMLIENALITQSRLMLLESVLIFFNLLAVLSYLKFFNCQKHSPFSLSWWFWLTLTGVACSCAVGIKYMGVFTYVLVLGVAAVHAWHLLGDQTLSNVGADVQCCMRPACMGQMQMSQGVCVFCHLLARAVALLVIPVVLYLLFFYVHLILVFRSGPHDQIMSSAFQASLEGGLARITQGQPLEVAFGSQVTLRNVFGKPVPCWLHSHQDTYPMIYENGRGSSHQQQVTCYPFKDVNNWWIVKDPRRHQLVVSSPPRPVRHGDMVQLVHGMTTRSLNTHDVAAPLSPHSQEVSCYIDYNISMPAQNLWRLEIVNRGSDTDVWKTILSEVRFVHVNTSAVLKLSGAHLPDWGYRQLEIVGEKLSRGYHGSTVWNVEEHRYGASQEQRERERELHSPAQVDVSRNLSFMARFSELQWRMLALRSDDSEHKYSSSPLEWVTLDTNIAYWLHPRTSAQIHLLGNIVIWVSGSLALAIYALLSLWYLLRRRRNVHDLPQDAWLRWVLAGALCAGGWAVNYLPFFLMEKTLFLYHYLPALTFQILLLPVVLQHISDHLCRSQLQRSIFSALVVAWYSSACHVSNTLRPLTYGDKSLSPHELKALRWKDSWDILIRKH
Consider B8, for which the “enzymatic modification of R5 (Glycosylation)” value is on record as “resulted in no modifications”.

B9: NMT2 (protein)
chain: MAEDSESAASQQSLELDDQDTCGIDGDNEEETEHAKGSPGGYLGAKKKKKKQKRKKEKPNSGGTKSDSASDSQEIKIQQPSKNPSVPMQKLQDIQRAMELLSACQGPARNIDEAAKHRYQFWDTQPVPKLDEVITSHGAIEPDKDNVRQEPYSLPQGFMWDTLDLSDAEVLKELYTLLNENYVEDDDNMFRFDYSPEFLLWALRPPGWLLQWHCGVRVSSNKKLVGFISAIPANIRIYDSVKKMVEINFLCVHKKLRSKRVAPVLIREITRRVNLEGIFQAVYTAGVVLPKPIATCRYWHRSLNPRKLVEVKFSHLSRNMTLQRTMKLYRLPDVTKTSGLRPMEPKDIKSVRELINTYLKQFHLAPVMDEEEVAHWFLPREHIIDTFVVESPNGKLTDFLSFYTLPSTVMHHPAHKSLKAAYSFYNIHTETPLLDLMSDALILAKSKGFDVFNALDLMENKTFLEKLKFGIGDGNLQYYLYNWRCPGTDSEKVGLVLQ
For B9, the “enzymatic modification of R5 (Lipidation)” value is “resulted in no modifications”.

B10: OGT (protein)
chain: ASSVGNVADSTEPTKRMLSFQGLAELAHREYQAGDFEAAERHCMQLWRQEPDNTGVLLLLSSIHFQCRRLDRSAHFSTLAIKQNPLLAEAYSNLGNVYKERGQLQEAIEHYRHALRLKPDFIDGYINLAAALVAAGDMEGAVQAYVSALQYNPDLYCVRSDLGNLLKALGRLEEAKACYLKAIETQPNFAVAWSNLGCVFNAQGEIWLAIHHFEKAVTLDPNFLDAYINLGNVLKEARIFDRAVAAYLRALSLSPNHAVVHGNLACVYYEQGLIDLAIDTYRRAIELQPHFPDAYCNLANALKEKGSVAEAEDCYNTALRLCPTHADSLNNLANIKREQGNIEEAVRLYRKALEVFPEFAAAHSNLASVLQQQGKLQEALMHYKEAIRISPTFADAYSNMGNTLKEMQDVQGALQCYTRAIQINPAFADAHSNLASIHKDSGNIPEAIASYRTALKLKPDFPDAYCNLAHCLQIVCDWTDYDERMKKLVSIVADQLEKNRLPSVHPHHSMLYPLSHGFRKAIAERHGNLCLDKINVLHKPPYEHPKDLKLSDGRLRVGYVSSDFGNHPTSHLMQSIPGMHNPDKFEVFCYALSPDDGTNFRVKVMAEANHFIDLSQIPCNGKAADRIHQDGIHILVNMNGYTKGARNELFALRPAPIQAMWLGYPGTSGALFMDYIITDQETSPAEVAEQYSEKLAYMPHTFFIGDHANMFPHLKKKAVIDFKSNGHIYDNRIVLNGIDLKAFLDSLPDVKIVKMKCPDGGDNADSSNTALNMPVIPMNTIAEAVIEMINRGQIQITINGFSISNGLATTQINNKAATGEEVPRTIIVTTRSQYGLPEDAIVYCNFNQLYKIDPSTLQMWANILKRVPNSVLWLLRFPAVGEPNIQQYAQNMGLPQNRIIFSPVAPKEEHVRRGQLADVCLDTPLCNGHTTGMDVLWAGTPMVTMPGETLASRVAASQLTCLGCLELIAKNRQEYEDIAVKLGTDLEYLKKVRGKVWKQRISSPLFNTKQYTMELERLYLQMWEHYAAGNKPDHMIKPVEVTESA
Turning to B10, the “enzymatic modification of R5 (Glycosylation)” value was “resulted in no modifications”.

B11: lysine methyltransferase SETD7 (SET7/9) (protein)
chain: MDSDDEMVEEAVEGHLDDDGLPHGFCTVTYSSTDRFEGNFVHGEKNGRGKFFFFDGSTLEGYYVDDALQGQGVYTYEDGGVLQGTYVDGELNGPAQEYDTDGRLIFKGQYKDNIRHGVCWIYYPDGGSLVGEVNEDGEMTGEKIAYVYPDERTALYGKFIDGEMIEGKLATLMSTEEGRPHFELMPGNSVYHFDKSTSSCISTNALLPDPYESERVYVAESLISSAGEGLFSKVAVGPNTVMSFYNGVRITHQEVDSRDWALNGNTLSLDEETVIDVPEPYNHVSKYCASLGHKANHSFTPNCIYDMFVHPRFGPIKCIRTLRAVEADEELTVAYGYDHSPPGKSGPEAPEWYQVELKAFQATQQK
Regarding B11, the “methylation of R5 (LC-MS time course)” value is given as “A time course showing the incorporation of zero to 16 methyl groups into R5”.

B12: SET7/9 Y305F (protein)
chain: MDSDDEMVEEAVEGHLDDDGLPHGFCTVTYSSTDRFEGNFVHGEKNGRGKFFFFDGSTLEGYYVDDALQGQGVYTYEDGGVLQGTYVDGELNGPAQEYDTDGRLIFKGQYKDNIRHGVCWIYYPDGGSLVGEVNEDGEMTGEKIAYVYPDERTALYGKFIDGEMIEGKLATLMSTEEGRPHFELMPGNSVYHFDKSTSSCISTNALLPDPYESERVYVAESLISSAGEGLFSKVAVGPNTVMSFYNGVRITHQEVDSRDWALNGNTLSLDEETVIDVPEPYNHVSKYCASLGHKANHSFTPNCIFDMFVHPRFGPIKCIRTLRAVEADEELTVAYGYDHSPPGKSGPEAPEWYQVELKAFQATQQK
Consider B12, for which the “methylation of R5 (LC-MS time course)” value was “A time course showing the incorporation of zero to 16 methyl groups into R5”.
